Assay results from patent US20190134153A1, “IMMUNOMODULATORY EFFECT OF INHALED KINASE INHIBITOR PEPTIDES IN LUNG” (MOERAE MATRIX, INC., priority 2017, published 2019).

Key:
Assay in all cases: Kinase Profiling Assay
Type in all cases: biochemical
Details in all cases: 100 μM
[1] = target: cSRC(h) (Homo sapiens, UniProt P12931)
[2] = target: T1, PKCζ(h) (Homo sapiens, UniProt Q05513)
T1 sequence (Q05513 1-592): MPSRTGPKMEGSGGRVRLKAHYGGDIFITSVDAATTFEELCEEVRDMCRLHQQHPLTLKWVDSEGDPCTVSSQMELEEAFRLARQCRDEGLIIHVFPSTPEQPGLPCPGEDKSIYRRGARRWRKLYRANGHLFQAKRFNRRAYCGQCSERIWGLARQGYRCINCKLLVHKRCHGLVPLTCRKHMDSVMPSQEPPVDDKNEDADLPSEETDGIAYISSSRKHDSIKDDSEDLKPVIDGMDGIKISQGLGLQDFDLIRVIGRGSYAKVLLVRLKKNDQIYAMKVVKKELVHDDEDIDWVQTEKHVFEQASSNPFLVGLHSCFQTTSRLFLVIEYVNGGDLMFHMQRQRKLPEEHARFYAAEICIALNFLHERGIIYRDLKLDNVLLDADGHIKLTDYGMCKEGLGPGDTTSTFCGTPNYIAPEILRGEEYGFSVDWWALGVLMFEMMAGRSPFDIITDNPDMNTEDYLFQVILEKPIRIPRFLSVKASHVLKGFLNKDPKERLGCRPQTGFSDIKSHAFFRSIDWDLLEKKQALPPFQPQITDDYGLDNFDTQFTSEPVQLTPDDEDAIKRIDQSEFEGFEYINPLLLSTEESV

[3] = target: PKCβII(h) (Homo sapiens, UniProt P05771)
Chain of PKCβII(h) (P05771 1-673 isoform P05771-2): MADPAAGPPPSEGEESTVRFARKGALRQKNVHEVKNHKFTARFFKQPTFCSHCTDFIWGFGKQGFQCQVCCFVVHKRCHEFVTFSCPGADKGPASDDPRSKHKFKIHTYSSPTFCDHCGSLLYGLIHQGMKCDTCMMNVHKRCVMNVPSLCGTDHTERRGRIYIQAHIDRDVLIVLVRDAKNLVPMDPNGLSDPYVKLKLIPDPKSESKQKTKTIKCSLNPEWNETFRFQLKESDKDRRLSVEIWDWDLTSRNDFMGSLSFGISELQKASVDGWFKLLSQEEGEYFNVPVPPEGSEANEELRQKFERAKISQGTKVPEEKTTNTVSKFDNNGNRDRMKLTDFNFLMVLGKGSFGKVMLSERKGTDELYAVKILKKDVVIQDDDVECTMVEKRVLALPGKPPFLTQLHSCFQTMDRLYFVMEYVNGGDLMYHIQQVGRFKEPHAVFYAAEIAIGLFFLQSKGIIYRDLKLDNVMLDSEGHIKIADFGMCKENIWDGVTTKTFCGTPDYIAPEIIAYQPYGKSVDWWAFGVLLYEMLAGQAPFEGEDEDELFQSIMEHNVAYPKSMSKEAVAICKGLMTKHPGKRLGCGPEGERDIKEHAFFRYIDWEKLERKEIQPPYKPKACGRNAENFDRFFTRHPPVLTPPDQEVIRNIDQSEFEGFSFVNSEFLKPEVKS

[4] = target: T2, TSSK2(h) (Homo sapiens, UniProt Q96PF2)
T2 sequence (Q96PF2 1-358): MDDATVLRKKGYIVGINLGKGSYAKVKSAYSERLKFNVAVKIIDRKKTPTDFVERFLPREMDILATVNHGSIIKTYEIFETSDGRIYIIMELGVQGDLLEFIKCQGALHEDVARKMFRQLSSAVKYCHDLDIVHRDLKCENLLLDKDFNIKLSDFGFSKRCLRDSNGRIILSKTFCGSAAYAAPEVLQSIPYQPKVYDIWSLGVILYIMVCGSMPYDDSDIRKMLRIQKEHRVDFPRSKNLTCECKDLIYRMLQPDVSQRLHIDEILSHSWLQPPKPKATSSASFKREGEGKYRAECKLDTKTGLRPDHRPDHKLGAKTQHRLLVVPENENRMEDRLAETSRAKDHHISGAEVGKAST

[5] = target: Met(D1246N)(h) (Homo sapiens, UniProt P08581, D1228N)
[6] = target: T3, MKK6(h) (Homo sapiens, UniProt P52564)
T3 sequence (P52564 1-334): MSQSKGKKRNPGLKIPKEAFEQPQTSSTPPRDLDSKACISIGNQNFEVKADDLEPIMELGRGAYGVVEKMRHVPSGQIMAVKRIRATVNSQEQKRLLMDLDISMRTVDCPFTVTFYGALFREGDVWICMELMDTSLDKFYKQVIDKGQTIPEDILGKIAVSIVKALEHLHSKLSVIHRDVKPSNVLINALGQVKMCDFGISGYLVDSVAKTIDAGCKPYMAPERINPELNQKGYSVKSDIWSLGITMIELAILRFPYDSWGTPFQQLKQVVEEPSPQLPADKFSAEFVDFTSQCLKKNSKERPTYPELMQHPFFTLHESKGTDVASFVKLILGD

[7] = target: Ron(h) (Homo sapiens, UniProt Q04912)
[8] = target: Fgr(h) (Homo sapiens, UniProt P09769)
[9] = target: T4, DYRK2(h) (Homo sapiens, UniProt Q92630)
T4 sequence (Q92630 1-601): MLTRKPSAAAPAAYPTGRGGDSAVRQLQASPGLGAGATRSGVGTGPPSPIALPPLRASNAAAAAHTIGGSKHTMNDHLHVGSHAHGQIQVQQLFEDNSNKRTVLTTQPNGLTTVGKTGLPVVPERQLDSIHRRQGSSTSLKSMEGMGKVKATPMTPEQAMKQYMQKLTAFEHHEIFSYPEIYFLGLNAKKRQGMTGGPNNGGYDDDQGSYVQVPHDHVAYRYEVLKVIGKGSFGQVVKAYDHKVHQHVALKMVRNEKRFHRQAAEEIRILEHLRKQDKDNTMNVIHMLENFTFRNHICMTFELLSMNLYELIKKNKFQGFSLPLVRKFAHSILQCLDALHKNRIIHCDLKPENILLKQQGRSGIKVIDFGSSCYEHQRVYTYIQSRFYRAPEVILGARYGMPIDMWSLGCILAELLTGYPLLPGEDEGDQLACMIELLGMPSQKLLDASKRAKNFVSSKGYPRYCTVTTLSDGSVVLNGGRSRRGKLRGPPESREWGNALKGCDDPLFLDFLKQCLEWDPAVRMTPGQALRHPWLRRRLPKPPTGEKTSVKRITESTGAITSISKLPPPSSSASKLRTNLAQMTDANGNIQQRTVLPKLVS

[10] = target: CDK2/cyclinA(h) (Homo sapiens, UniProt P24941)
[11] = target: SAPK2a(h) (Homo sapiens, UniProt Q16539)
Chain of SAPK2a(h) (Q16539 whole entry): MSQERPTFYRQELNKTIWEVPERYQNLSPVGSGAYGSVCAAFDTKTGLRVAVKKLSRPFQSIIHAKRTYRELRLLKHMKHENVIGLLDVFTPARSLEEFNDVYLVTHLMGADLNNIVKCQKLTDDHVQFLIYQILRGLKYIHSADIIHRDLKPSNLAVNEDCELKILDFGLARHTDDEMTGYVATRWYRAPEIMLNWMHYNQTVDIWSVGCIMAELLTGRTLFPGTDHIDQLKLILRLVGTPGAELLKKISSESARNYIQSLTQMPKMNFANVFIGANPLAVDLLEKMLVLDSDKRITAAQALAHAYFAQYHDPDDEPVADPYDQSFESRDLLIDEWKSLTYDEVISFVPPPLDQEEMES

[12] = target: MRCKβ(h) (Homo sapiens, UniProt Q9Y5S2)
Chain of MRCKβ(h) (Q9Y5S2 whole entry): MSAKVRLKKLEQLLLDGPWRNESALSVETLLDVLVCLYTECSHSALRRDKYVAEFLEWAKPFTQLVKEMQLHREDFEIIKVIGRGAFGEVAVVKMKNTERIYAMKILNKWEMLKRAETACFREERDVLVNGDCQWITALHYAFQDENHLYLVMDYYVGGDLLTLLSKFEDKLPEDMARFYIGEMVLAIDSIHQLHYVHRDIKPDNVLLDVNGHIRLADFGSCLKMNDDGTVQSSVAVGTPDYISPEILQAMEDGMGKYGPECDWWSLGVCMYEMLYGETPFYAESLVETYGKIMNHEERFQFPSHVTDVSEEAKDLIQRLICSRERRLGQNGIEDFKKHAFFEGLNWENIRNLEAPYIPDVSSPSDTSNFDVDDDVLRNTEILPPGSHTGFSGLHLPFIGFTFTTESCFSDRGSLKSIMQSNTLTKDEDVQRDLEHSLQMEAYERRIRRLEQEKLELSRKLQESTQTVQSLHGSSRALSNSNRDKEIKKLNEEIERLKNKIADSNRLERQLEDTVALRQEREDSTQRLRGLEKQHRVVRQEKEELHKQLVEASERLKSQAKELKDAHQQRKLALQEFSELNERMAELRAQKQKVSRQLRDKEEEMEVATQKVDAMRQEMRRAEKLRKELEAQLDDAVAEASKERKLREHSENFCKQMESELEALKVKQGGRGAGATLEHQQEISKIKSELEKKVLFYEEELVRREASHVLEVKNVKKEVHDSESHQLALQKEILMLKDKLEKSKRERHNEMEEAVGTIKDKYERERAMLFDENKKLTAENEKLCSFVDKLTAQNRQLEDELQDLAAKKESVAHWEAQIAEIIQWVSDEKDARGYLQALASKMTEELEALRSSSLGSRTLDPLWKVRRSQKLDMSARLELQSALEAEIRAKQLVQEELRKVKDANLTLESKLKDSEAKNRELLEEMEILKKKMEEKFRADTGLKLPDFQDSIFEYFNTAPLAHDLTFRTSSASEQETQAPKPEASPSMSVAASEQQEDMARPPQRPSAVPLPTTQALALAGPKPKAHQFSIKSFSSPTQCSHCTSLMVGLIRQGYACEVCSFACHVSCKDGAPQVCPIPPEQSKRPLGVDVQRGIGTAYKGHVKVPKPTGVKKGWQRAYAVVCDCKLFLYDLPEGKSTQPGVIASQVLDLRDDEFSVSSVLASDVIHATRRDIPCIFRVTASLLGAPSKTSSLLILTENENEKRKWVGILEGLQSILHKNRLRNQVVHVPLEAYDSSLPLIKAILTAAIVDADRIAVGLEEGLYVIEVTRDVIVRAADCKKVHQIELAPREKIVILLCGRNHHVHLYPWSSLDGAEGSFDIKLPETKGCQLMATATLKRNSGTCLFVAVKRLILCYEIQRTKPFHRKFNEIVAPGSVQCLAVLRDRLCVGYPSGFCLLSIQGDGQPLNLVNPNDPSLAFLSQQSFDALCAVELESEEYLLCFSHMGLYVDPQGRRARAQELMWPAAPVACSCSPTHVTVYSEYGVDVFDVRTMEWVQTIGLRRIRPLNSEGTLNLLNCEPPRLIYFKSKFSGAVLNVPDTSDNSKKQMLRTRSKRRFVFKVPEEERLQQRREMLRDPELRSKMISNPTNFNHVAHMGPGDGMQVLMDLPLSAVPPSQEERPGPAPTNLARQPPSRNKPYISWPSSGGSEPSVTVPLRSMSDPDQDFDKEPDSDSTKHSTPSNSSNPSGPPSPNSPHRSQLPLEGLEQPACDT

For YARAAARQARAKALNRQLGVA [MMI-0200], the “% activity” value [1] was 32%, the “% activity” value [2] was 98% and the “% activity” value [3] was 100%. For the same sequence, the “% activity” value [4] was 91%, the “% activity” value [5] was 149% and the “% activity” value [6] was 98%. The “% activity” value [7] was 120%, the “% activity” value [8] was 71% and the “% activity” value [9] was 142%.
KAFAKLAARLYRKALARQLGVAA [MMI-0400] was tested, and the “% activity” value [1] was 14%, the “% activity” value [2] was 75% and the “% activity” value [3] was 75%. The “% activity” value [4] was 94%, the “% activity” value [5] was 31% and the “% activity” value [6] was 44%. For the same sequence, the “% activity” value [7] was 79%, the “% activity” value [10] was 92% and the “% activity” value [11] was 85%. The “% activity” value [8] was 47%, the “% activity” value [12] was 71% and the “% activity” value [9] was 195%.
In the case of HRRIKAWLKKIKALARQLGVAA [MMI-0500], the “% activity” value [1] is reported as 30%, the “% activity” value [2] is reported as 7% and the “% activity” value [3] is reported as 3%. For the same sequence, the “% activity” value [4] was 92%, the “% activity” value [5] was 90% and the “% activity” value [6] was 18%. The “% activity” value [7] was 46%, the “% activity” value [10] was 87% and the “% activity” value [11] was 52%. The “% activity” value [12] was −10% and the “% activity” value [9] was 127%.
With FAKLAARLYRKALARQLGVAA [MMI-0300] the “% activity” value [1] was 26%, the “% activity” value [2] was 81% and the “% activity” value [3] was 82%. The “% activity” value [4] was 98%, the “% activity” value [5] was 82% and the “% activity” value [6] was 48%. The “% activity” value [7] was 93%, the “% activity” value [10] was 86% and the “% activity” value [11] was 90%. For the same sequence, the “% activity” value [8] was 60%, the “% activity” value [12] was 83% and the “% activity” value [9] was 155%.
